Data on two molecules can be found in PMC4878814, “Mechanism of Human Nucleocytoplasmic Hexosaminidase D” (Biochemistry, 2016).

In data set [1] the target is T1, hexosaminidase D (HexD) (Homo sapiens, UniProt Q8WVB3).
T1 construct: human HexD in pET30a vector, expressed in E. coli BL21(DE3)
T1 sequence (Q8WVB3 1-486): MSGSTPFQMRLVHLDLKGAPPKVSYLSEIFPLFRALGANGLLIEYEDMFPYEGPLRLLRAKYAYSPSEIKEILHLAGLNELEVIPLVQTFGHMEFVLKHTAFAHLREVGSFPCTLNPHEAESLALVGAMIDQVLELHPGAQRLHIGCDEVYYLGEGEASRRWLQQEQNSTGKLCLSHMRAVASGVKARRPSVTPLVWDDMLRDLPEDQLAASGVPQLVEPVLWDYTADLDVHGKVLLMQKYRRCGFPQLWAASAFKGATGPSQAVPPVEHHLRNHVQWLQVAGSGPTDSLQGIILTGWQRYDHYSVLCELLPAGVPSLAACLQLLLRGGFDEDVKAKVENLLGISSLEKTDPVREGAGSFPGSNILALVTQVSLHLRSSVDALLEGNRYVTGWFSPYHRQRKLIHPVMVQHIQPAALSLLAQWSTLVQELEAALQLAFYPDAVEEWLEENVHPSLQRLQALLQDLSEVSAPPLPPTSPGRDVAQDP
The experiment in a line: inhibition of purified enzyme hydrolysis of PNP-GalNAc, absorbance, Lineweaver-Burk and nonlinear regression. It counts as biochemical.

The target in data set [2] is T2, murine HexD (Mus musculus, UniProt Q3U4H6).
T2 sequence (Q3U4H6 1-486): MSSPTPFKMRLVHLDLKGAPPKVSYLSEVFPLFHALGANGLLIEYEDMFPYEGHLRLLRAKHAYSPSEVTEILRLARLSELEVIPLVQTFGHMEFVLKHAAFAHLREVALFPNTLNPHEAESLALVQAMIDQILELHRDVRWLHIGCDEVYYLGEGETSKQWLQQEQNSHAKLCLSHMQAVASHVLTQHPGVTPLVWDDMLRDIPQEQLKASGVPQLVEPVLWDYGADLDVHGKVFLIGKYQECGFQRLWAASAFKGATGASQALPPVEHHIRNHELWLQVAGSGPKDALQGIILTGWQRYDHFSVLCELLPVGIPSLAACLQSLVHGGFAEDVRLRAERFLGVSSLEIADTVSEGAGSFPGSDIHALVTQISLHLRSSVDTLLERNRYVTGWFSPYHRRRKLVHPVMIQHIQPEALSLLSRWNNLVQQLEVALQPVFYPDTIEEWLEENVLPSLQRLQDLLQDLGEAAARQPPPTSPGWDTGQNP
The experiment in a line: enzyme inhibition, preliminary studies (data not shown). The format is biochemical.

Substrate in data set [3]: CC(=O)N[C@H]1[C@H](Oc2ccc([N+](=O)[O-])cc2)O[C@H](CO)[C@H](O)[C@@H]1O
The experiment in a line: Michaelis-Menten kinetics of hydrolysis by purified enzyme (KM); hydrolysis also followed by 1H NMR. The format is biochemical, Homo sapiens. The settings on record: active site; Asp148 polarizing residue, Glu149 general acid/base.

Substrate in data set [4]: CC(=O)N[C@H]1[C@H](Oc2ccc([N+](=O)[O-])c(F)c2)O[C@H](CO)[C@@H](O)[C@@H]1O
The experiment in a line: purified protein.

Substrate in data set [5]: CC(=O)N[C@H]1[C@H](Oc2ccc([N+](=O)[O-])c(F)c2)O[C@H](CO)[C@H](O)[C@@H]1O
The experiment in a line: purified protein.

Substrate in data set [6]: CC(=O)N[C@H]1[C@H](Oc2ccc([N+](=O)[O-])cc2)O[C@H](CO)[C@@H](O)[C@@H]1O
The experiment in a line: purified protein.

Substrate in data set [7]: O=C(CF)N[C@H]1[C@H](Oc2ccc([N+](=O)[O-])cc2)O[C@H](CO)[C@H](O)[C@@H]1O
The experiment in a line: purified protein.

Substrate in data set [8]: O=C(N[C@H]1[C@H](Oc2ccc([N+](=O)[O-])cc2)O[C@H](CO)[C@H](O)[C@@H]1O)C(F)(F)F
The experiment in a line: purified protein.

Substrate in data set [9]: O=C(N[C@H]1[C@H](Oc2ccc([N+](=O)[O-])cc2)O[C@H](CO)[C@H](O)[C@@H]1O)C(F)F
The experiment in a line: purified protein.

The Ki is the dissociation constant of the complex between target and ligand, obtained from inhibition or displacement. Higher therefore signals a looser hold on the target. By Km is commonly meant the concentration of substrate that gives half-maximal velocity. The term kcat denotes the number of substrate molecules converted per active site and unit of time at saturation. The kcat/Km is the turnover number divided by the Michaelis constant.

For `CC1=N[C@@H]2[C@@H](O)[C@@H](O)[C@@H](CO)O[C@@H]2S1` [compound 4, Gal-NAG-thiazoline], the inhibition constant (Ki) in data set [1] came out at 420 nM; in data set [2], 520 nM.

B1: hexosaminidase D (HexD) (Homo sapiens) (protein)
chain: MSGSTPFQMRLVHLDLKGAPPKVSYLSEIFPLFRALGANGLLIEYEDMFPYEGPLRLLRAKYAYSPSEIKEILHLAGLNELEVIPLVQTFGHMEFVLKHTAFAHLREVGSFPCTLNPHEAESLALVGAMIDQVLELHPGAQRLHIGCDEVYYLGEGEASRRWLQQEQNSTGKLCLSHMRAVASGVKARRPSVTPLVWDDMLRDLPEDQLAASGVPQLVEPVLWDYTADLDVHGKVLLMQKYRRCGFPQLWAASAFKGATGPSQAVPPVEHHLRNHVQWLQVAGSGPTDSLQGIILTGWQRYDHYSVLCELLPAGVPSLAACLQLLLRGGFDEDVKAKVENLLGISSLEKTDPVREGAGSFPGSNILALVTQVSLHLRSSVDALLEGNRYVTGWFSPYHRQRKLIHPVMVQHIQPAALSLLAQWSTLVQELEAALQLAFYPDAVEEWLEENVHPSLQRLQALLQDLSEVSAPPLPPTSPGRDVAQDP
notes: human HexD in pET30a vector, expressed in E. coli BL21(DE3)
On to B1, for which the Michaelis-Menten constant (Km) was 72.1 ± 4.8 µM in data set [3]; 852 ± 54 µM in data set [4]; 172 ± 19 µM in [5]; 607 ± 53 µM in data set [6]; 533 ± 17 µM in [7]; 103 ± 27 µM in data set [8]. Moreover, the Michaelis-Menten constant (Km) in data set [9] was determined as 102 ± 16 µM. Also, the kcat in data set [3] is 1.32 ± 0.02 s⁻¹; in [4], 1.54 ± 0.045 s⁻¹; in data set [5], 2.03 ± 0.065 s⁻¹; in data set [6], 0.507 ± 0.0148 s⁻¹; in data set [7] it was 2.6 ± 0.0317 s⁻¹; in [8], 0.042 ± 0.00283 s⁻¹. Besides, in [9], the turnover number (kcat) was found to be 0.27 ± 0.0108 s⁻¹. The kcat/Km in data set [3] was found to be 18200 ± 1250 M⁻¹ s⁻¹; in data set [4] it was 1820 ± 127 M⁻¹ s⁻¹; in data set [5], 11800 ± 1350 M⁻¹ s⁻¹; in data set [6], 835 ± 76.7 M⁻¹ s⁻¹; in data set [7] it was 4980 ± 183 M⁻¹ s⁻¹; in data set [8] it was 408 ± 108 M⁻¹ s⁻¹. Further, the kcat/Km in [9] amounted to 2650 ± 417 M⁻¹ s⁻¹.
